Our source for the reverse-splicing fitness values is the RNAGym collection of RNA variant scans (doi:10.1093/molbev/msab373).

B1: Azoarcus group I ribozyme (parent)
chain: GUGCCUUGCGCCGGGAAACCACGCAAGGGAUGGUGUCAAAUUCGGCGAAACCUAAGCGCCCGCCCGGGCGUAUGGCAACGCCGAGCCAAGCUUCGGCGCCUGCGCCGAUGAAGGUGUAGAGACUAGACGGCACCCACCUAAGGCAAACGCUAUGGUGAAGGCAUAGUCCAGGGAGUGGCGAAAGUCACACAAACCGG

Variants of B1 are the subject of this data set. In words: reverse-splicing fitness (ratio to wild type); higher = more active; in vitro selection; Mg2+ level not given. The method in brief: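 An in vitro group I ribozyme library with randomized positions was T7-transcribed and gel-purified. In triplicate, 10 pmol RNA in EPPS pH 7.5 was reacted with 50 pmoles of a 30-nt RNA substrate for 1 h at 37 °C across several added MgCl2 levels (1–48 mM), then stopped with EDTA. Products were reverse transcribed from a substrate-complementary primer, PCR-amplified and sequenced (HiSeq 4000). Fitness is a variant's read proportion after selection over that before, normalised to wild type.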
On to GUGCCUUGCGCCGGGAAACCACGCAAGGGAUGGUGUCAAAUUCGGCGAAACCUAAGCGCCCGCCCGGGCGUAUGGCAACGCCGAGCCAAGCUUCGGCGCCUGCGCCGAUGAAGGUGUAGCGACUAGACGGCACCCACCUAAGGCUAACGCUAUGGUGAAGGCAUAGUCUAGGGAGAGGCGAAAGUCACACAAACCGG, for which the reverse-splicing fitness came out at 0.143.

On to GUGCCUUGCGCCGGGAAACCACGCAAGGGAUGGUGUCAAAUUCGGCGAAACCUAAGCGCCCGCCCGGGCGUAUGGCAACGCCGAGCCAAGCUUCGGCGCCUGCGCCGAUGAAGGUGUAGCGACUAGACGGCACCCACCUAAGGCUAACGCUAUGGUGAAGGCAUAGUCUAGGGAGGGGCGAAAGUCACACAAACCGG, for which the reverse-splicing fitness is 0.0184.

With GUGCCUUGCGCCGGGAAACCACGCAAGGGAUGGUGUCAAAUUCGGCGAAACCUAAGCGCCCGCCCGGGCGUAUGGCAACGCCGAGCCAAGCUUCGGCGCCUGCGCCGAUGAAGGUGUAGCGACUAGACGGCACCCACCUAAGGCUAACGCUAUGGUGAAGGCAUAGUCUAGGGAGCGGCGAAAGUCACACAAACCGG, the reverse-splicing fitness came out at 0.187.

Consider GUGCCUUGCGCCGGGAAACCACGCAAGGGAUGGUGUCAAAUUCGGCGAAACCUAAGCGCCCGCCCGGGCGUAUGGCAACGCCGAGCCAAGCUUCGGCGCCUGCGCCGAUGAAGGUGUAGCGACUAGACGGCACCCACCUAAGGCUAACGCUAUGGUGAAGGCAUAGUCAAGGGAGUGGCGAAAGUCACACAAACCGG, for which the reverse-splicing fitness amounted to 0.032.

On to GUGCCUUGCGCCGGGAAACCACGCAAGGGAUGGUGUCAAAUUCGGCGAAACCUAAGCGCCCGCCCGGGCGUAUGGCAACGCCGAGCCAAGCUUCGGCGCCUGCGCCGAUGAAGGUGUAGCGACUAGACGGCACCCACCUAAGGCUAACGCUAUGGUGAAGGCAUAGUCGAGGGAGUGGCGAAAGUCACACAAACCGG, for which the reverse-splicing fitness came to 0.0257.

For GUGCCUUGCGCCGGGAAACCACGCAAGGGAUGGUGUCAAAUUCGGCGAAACCUAAGCGCCCGCCCGGGCGUAUGGCAACGCCGAGCCAAGCUUCGGCGCCUGCGCCGAUGAAGGUGUAGCGACUAGACGGCACCCACCUAAGGCUAACGCUAUGGUGAAGGCAUAGUCUAGGGAGUGGCGAAAGUCACACAAACCGG, the reverse-splicing fitness was determined as 0.441.

In the case of GUGCCUUGCGCCGGGAAACCACGCAAGGGAUGGUGUCAAAUUCGGCGAAACCUAAGCGCCCGCCCGGGCGUAUGGCAACGCCGAGCCAAGCUUCGGCGCCUGCGCCGAUGAAGGUGUAGCGACUAGACGGCACCCACCUAAGGCAAACGAUAUGGUGAAGGCAUAGUCCAGGGAGUGGCGAAAGUCACACAAACCGG, the reverse-splicing fitness is 0.241.

Take GUGCCUUGCGCCGGGAAACCACGCAAGGGAUGGUGUCAAAUUCGGCGAAACCUAAGCGCCCGCCCGGGCGUAUGGCAACGCCGAGCCAAGCUUCGGCGCCUGCGCCGAUGAAGGUGUAGCGACUAGACGGCACCCACCUAAGGCUAACGCUAUGGUGAAGGCAUAGUCCAGGGAGCGGCGAAAGUCACACAAACCGG: the reverse-splicing fitness was determined as 0.7.

In the case of GUGCCUUGCGCCGGGAAACCACGCAAGGGAUGGUGUCAAAUUCGGCGAAACCUAAGCGCCCGCCCGGGCGUAUGGCAACGCCGAGCCAAGCUUCGGCGCCUGCGCCGAUGAAGGUGUAGCGACUAGACGGCACCCACCUAAGGCUAACGCUAUGGUGAAGGCAUAGUCCAGGGAGAGGCGAAAGUCACACAAACCGG, the reverse-splicing fitness was 0.726.

With GUGCCUUGCGCCGGGAAACCACGCAAGGGAUGGUGUCAAAUUCGGCGAAACCUAAGCGCCCGCCCGGGCGUAUGGCAACGCCGAGCCAAGCUUCGGCGCCUGCGCCGAUGAAGGUGUAGCGACUAGACGGCACCCACCUAAGGCUAACGCUAUGGUGAAGGCAUAGUCCAGGGAGGGGCGAAAGUCACACAAACCGG, the reverse-splicing fitness is 0.318.

As for GUGCCUUGCGCCGGGAAACCACGCAAGGGAUGGUGUCAAAUUCGGCGAAACCUAAGCGCCCGCCCGGGCGUAUGGCAACGCCGAGCCAAGCUUCGGCGCCUGCGCCGAUGAAGGUGUAGCGACUAGACGGCACCCACCUAAGGCUAACGCUAUGGUGAAGGCAUAGUCGAGGGAGCGGCGAAAGUCACACAAACCGG, the reverse-splicing fitness was 0.0112.

GUGCCUUGCGCCGGGAAACCACGCAAGGGAUGGUGUCAAAUUCGGCGAAACCUAAGCGCCCGCCCGGGCGUAUGGCAACGCCGAGCCAAGCUUCGGCGCCUGCGCCGAUGAAGGUGUAGCGACUAGACGGCACCCACCUAAGGCUAACGCUAUGGUGAAGGCAUAGUCGAGGGAGGGGCGAAAGUCACACAAACCGG: the reverse-splicing fitness amounted to 0.0038.

Consider GUGCCUUGCGCCGGGAAACCACGCAAGGGAUGGUGUCAAAUUCGGCGAAACCUAAGCGCCCGCCCGGGCGUAUGGCAACGCCGAGCCAAGCUUCGGCGCCUGCGCCGAUGAAGGUGUAGCGACUAGACGGCACCCACCUAAGGCUAACGCUAUGGUGAAGGCAUAGUCGAGGGAGAGGCGAAAGUCACACAAACCGG, for which the reverse-splicing fitness turned out to be 0.00826.

For GUGCCUUGCGCCGGGAAACCACGCAAGGGAUGGUGUCAAAUUCGGCGAAACCUAAGCGCCCGCCCGGGCGUAUGGCAACGCCGAGCCAAGCUUCGGCGCCUGCGCCGAUGAAGGUGUAGCGACUAGACGGCACCCACCUAAGGCUAACGUUAUGGUGAAGGCAUAGUCUAGGGAGCGGCGAAAGUCACACAAACCGG, the reverse-splicing fitness was 0.16.

As for GUGCCUUGCGCCGGGAAACCACGCAAGGGAUGGUGUCAAAUUCGGCGAAACCUAAGCGCCCGCCCGGGCGUAUGGCAACGCCGAGCCAAGCUUCGGCGCCUGCGCCGAUGAAGGUGUAGCGACUAGACGGCACCCACCUAAGGCUAACGUUAUGGUGAAGGCAUAGUCUAGGGAGGGGCGAAAGUCACACAAACCGG, the reverse-splicing fitness came out at 0.0113.

Regarding GUGCCUUGCGCCGGGAAACCACGCAAGGGAUGGUGUCAAAUUCGGCGAAACCUAAGCGCCCGCCCGGGCGUAUGGCAACGCCGAGCCAAGCUUCGGCGCCUGCGCCGAUGAAGGUGUAGCGACUAGACGGCACCCACCUAAGGCUAACGUUAUGGUGAAGGCAUAGUCUAGGGAGAGGCGAAAGUCACACAAACCGG, the reverse-splicing fitness turned out to be 0.131.

In the case of GUGCCUUGCGCCGGGAAACCACGCAAGGGAUGGUGUCAAAUUCGGCGAAACCUAAGCGCCCGCCCGGGCGUAUGGCAACGCCGAGCCAAGCUUCGGCGCCUGCGCCGAUGAAGGUGUAGCGACUAGACGGCACCCACCUAAGGCAAACGAUAUGGUGAAGGCAUAGUCAAGGGAGGGGCGAAAGUCACACAAACCGG, the reverse-splicing fitness was 0.00451.

Consider GUGCCUUGCGCCGGGAAACCACGCAAGGGAUGGUGUCAAAUUCGGCGAAACCUAAGCGCCCGCCCGGGCGUAUGGCAACGCCGAGCCAAGCUUCGGCGCCUGCGCCGAUGAAGGUGUAGCGACUAGACGGCACCCACCUAAGGCAAACGAUAUGGUGAAGGCAUAGUCAAGGGAGAGGCGAAAGUCACACAAACCGG, for which the reverse-splicing fitness was 0.0193.

For the variant GUGCCUUGCGCCGGGAAACCACGCAAGGGAUGGUGUCAAAUUCGGCGAAACCUAAGCGCCCGCCCGGGCGUAUGGCAACGCCGAGCCAAGCUUCGGCGCCUGCGCCGAUGAAGGUGUAGCGACUAGACGGCACCCACCUAAGGCAAACGAUAUGGUGAAGGCAUAGUCAAGGGAGCGGCGAAAGUCACACAAACCGG, the reverse-splicing fitness turned out to be 0.011.

For the variant GUGCCUUGCGCCGGGAAACCACGCAAGGGAUGGUGUCAAAUUCGGCGAAACCUAAGCGCCCGCCCGGGCGUAUGGCAACGCCGAGCCAAGCUUCGGCGCCUGCGCCGAUGAAGGUGUAGCGACUAGACGGCACCCACCUAAGGCAAACGAUAUGGUGAAGGCAUAGUCGAGGGAGUGGCGAAAGUCACACAAACCGG, the reverse-splicing fitness stood at 0.00864.

In the case of GUGCCUUGCGCCGGGAAACCACGCAAGGGAUGGUGUCAAAUUCGGCGAAACCUAAGCGCCCGCCCGGGCGUAUGGCAACGCCGAGCCAAGCUUCGGCGCCUGCGCCGAUGAAGGUGUAGCGACUAGACGGCACCCACCUAAGGCAAACGAUAUGGUGAAGGCAUAGUCAAGGGAGUGGCGAAAGUCACACAAACCGG, the reverse-splicing fitness is 0.0141.

For the variant GUGCCUUGCGCCGGGAAACCACGCAAGGGAUGGUGUCAAAUUCGGCGAAACCUAAGCGCCCGCCCGGGCGUAUGGCAACGCCGAGCCAAGCUUCGGCGCCUGCGCCGAUGAAGGUGUAGCGACUAGACGGCACCCACCUAAGGCAAACGAUAUGGUGAAGGCAUAGUCGAGGGAGGGGCGAAAGUCACACAAACCGG, the reverse-splicing fitness stood at 0.00418.

Take GUGCCUUGCGCCGGGAAACCACGCAAGGGAUGGUGUCAAAUUCGGCGAAACCUAAGCGCCCGCCCGGGCGUAUGGCAACGCCGAGCCAAGCUUCGGCGCCUGCGCCGAUGAAGGUGUAGCGACUAGACGGCACCCACCUAAGGCAAACGAUAUGGUGAAGGCAUAGUCGAGGGAGCGGCGAAAGUCACACAAACCGG: the reverse-splicing fitness turned out to be 0.0156.

GUGCCUUGCGCCGGGAAACCACGCAAGGGAUGGUGUCAAAUUCGGCGAAACCUAAGCGCCCGCCCGGGCGUAUGGCAACGCCGAGCCAAGCUUCGGCGCCUGCGCCGAUGAAGGUGUAGCGACUAGACGGCACCCACCUAAGGCAAACGAUAUGGUGAAGGCAUAGUCGAGGGAGAGGCGAAAGUCACACAAACCGG: the reverse-splicing fitness was 0.0161.

Take GUGCCUUGCGCCGGGAAACCACGCAAGGGAUGGUGUCAAAUUCGGCGAAACCUAAGCGCCCGCCCGGGCGUAUGGCAACGCCGAGCCAAGCUUCGGCGCCUGCGCCGAUGAAGGUGUAGCGACUAGACGGCACCCACCUAAGGCUAACGCUAUGGUGAAGGCAUAGUCAAGGGAGGGGCGAAAGUCACACAAACCGG: the reverse-splicing fitness amounted to 0.00466.

As for GUGCCUUGCGCCGGGAAACCACGCAAGGGAUGGUGUCAAAUUCGGCGAAACCUAAGCGCCCGCCCGGGCGUAUGGCAACGCCGAGCCAAGCUUCGGCGCCUGCGCCGAUGAAGGUGUAGCGACUAGACGGCACCCACCUAAGGCUAACGCUAUGGUGAAGGCAUAGUCAAGGGAGCGGCGAAAGUCACACAAACCGG, the reverse-splicing fitness amounted to 0.0127.

Take GUGCCUUGCGCCGGGAAACCACGCAAGGGAUGGUGUCAAAUUCGGCGAAACCUAAGCGCCCGCCCGGGCGUAUGGCAACGCCGAGCCAAGCUUCGGCGCCUGCGCCGAUGAAGGUGUAGCGACUAGACGGCACCCACCUAAGGCUAACGCUAUGGUGAAGGCAUAGUCAAGGGAGAGGCGAAAGUCACACAAACCGG: the reverse-splicing fitness worked out at 0.01.

For the variant GUGCCUUGCGCCGGGAAACCACGCAAGGGAUGGUGUCAAAUUCGGCGAAACCUAAGCGCCCGCCCGGGCGUAUGGCAACGCCGAGCCAAGCUUCGGCGCCUGCGCCGAUGAAGGUGUAGCGACUAGACGGCACCCACCUAAGGCUAACGUUAUGGUGAAGGCAUAGUCCAGGGAGGGGCGAAAGUCACACAAACCGG, the reverse-splicing fitness is 0.2.

For GUGCCUUGCGCCGGGAAACCACGCAAGGGAUGGUGUCAAAUUCGGCGAAACCUAAGCGCCCGCCCGGGCGUAUGGCAACGCCGAGCCAAGCUUCGGCGCCUGCGCCGAUGAAGGUGUAGCGACUAGACGGCACCCACCUAAGGCUAACGUUAUGGUGAAGGCAUAGUCCAGGGAGCGGCGAAAGUCACACAAACCGG, the reverse-splicing fitness came out at 0.562.

As to GUGCCUUGCGCCGGGAAACCACGCAAGGGAUGGUGUCAAAUUCGGCGAAACCUAAGCGCCCGCCCGGGCGUAUGGCAACGCCGAGCCAAGCUUCGGCGCCUGCGCCGAUGAAGGUGUAGCGACUAGACGGCACCCACCUAAGGCUAACGUUAUGGUGAAGGCAUAGUCCAGGGAGAGGCGAAAGUCACACAAACCGG, the reverse-splicing fitness was 0.652.
